Test results published in US20030124590A1, “Carbohydrate response element binding protein and uses thereof” (priority 2001, published 2003).
Each block holds one compound with its values, some of them ahead of it. No end group written: not given here.

Columns and labels:
L-PK gene [1] = test: Glucose-induced L-PK transcription (luciferase) in ChREBP overexpressed hepatocytes with fatty acids or AICAR; format: cell-based, rat; conditions: 27.5 mM glucose
Method: After a six h attachment period, hepatocytes were transfected using synthetic liposome (Lipofectamine 2000; Life Technologies) in Opti-MEM I reduced serum medium as described (Yamashita et al. Proc. Natl. Acad. Sci. USA 98, 9116-9121) and incubated for 12 h. As a control, hepatocytes were exposed to synthetic liposome in the same manner as each experimental group. […] The source of albumin for all studies was essentially fatty acid-free bovine serum albumin. Transfected cells were cultured for 12 h in culture medium containing 27.5 mM glucose plus 150 μM albumin-bound specific fatty acids or AICAR, washed twice with 2 ml Ca2+- and Mg2+-free phosphate-buffered saline, and lysed with Passive lysis buffer (Promega). Firefly luciferase and renilla (sea pansy) luciferase activities were measured sequentially using a Dual-Luciferase Reporter assay system (Promega) and a model TD-20E Luminometer (Turner Design, Sunnyvale, Calif.). After measuring the firefly luciferase signal and the renilla luciferase signal, the index of relative luciferase activity, indicating L-PK transcription activity, was calculated according to manufacturer's instructions (Promega).

L-PK gene [2] = test: L-PK promoter luciferase reporter in ChREBP-transfected primary hepatocytes with kinase/phosphatase inhibitors or db-cAMP; conditions: for transcriptional activity of the L-PK gene in ChREBP-overexpressed hepatocytes: 5.5 and 27.5 mM glucose, 12 h, 10 μM H-89, 500 nM cantharidic acid, 5 μM KN-62, 30 μM PD98059, 50 μM Genistein
Method: Primary hepatocytes were prepared from male Sprague-Dawley rats using the collagenase (Life Technologies, Inc.) perfusion method (Berry and Friend (1969) J Cell Bio […], 506-520) and plated in collagen-coated six-well tissue culture plates (Primaria Falcon, Franklin Lakes, N.J.) at a density of 1×10^6 cells/well in glucose-free Dulbecco's modified Eagle's medium (Life Technologies, Inc.) supplemented with 100 nM dexamethasone, 10 nM insulin, 100 units/ml penicillin, 100 μg/ml streptomycin and 10% dialyzed fetal bovine serum (Life Technologies, Inc.). Following attachment, synthetic liposomes were used to transfect hepatocytes with 0.5 μg of the luciferase reporter plasmid and 0.1 μg of the internal control plasmid pRL-TK. After 14 h the media was replaced by Dulbecco's modified Eagle medium supplemented with 100 nM dexamethasone, 10 nM insulin, 10% Fetal Bovine Serum and either 10 mM lactate, 5.5 mM glucose or 27.5 mM glucose. The cells were incubated for an additional 12 h prior to determination of luciferase activity using the Dual-Luciferase Reporter Assay System (Promega).
Protein Kinase and Protein Phosphatase Inhibitors—Prior to exchange to 5.5 or 27.5 mM glucose medium, transfected primary culture hepatocytes were treated for 1 h with 10 μM H-89, 500 nM cantharidic acid (Calbiochem), 5 μM KN-62 (Calbiochem), 30 μM PD98059 (Calbiochem), 50 μM Genistein, or dimethylsulfoxide vehicle.
Rat primary cultured hepatocytes were transfected a plasmid comprising a gene encoding the wild type (WT)-ChREBP. H-89, cantharidic acid, or dimethylsulfoxide vehicle was added, and the cells were incubated in 5.5 mM (□) or 27.5 mM (▪) glucose for 12 h.
Rat primary cultured hepatocytes were transfected with wild type (WT)-ChREBP, S626A, S626D, T666A, or T666D. After transfection, the cells were incubated in 5.5 mM (□) or 27.5 mM (▪) glucose for 12 h. […] Rat primary cultured hepatocytes were transfected with wild type (WT)-ChREBP, S196A+S626A, or S196A+T666A. After transfection, cells were incubated under 5.5 mM (□) or 27.5 mM (▪) glucose, and cAMP was added both low and high glucose.

GFP-fused ChREBP = test: Subcellular localization of GFP-fused ChREBP in primary hepatocytes (confocal microscopy); format: cell-based, rat; conditions: 12 h
Method: Determination of Subcellular Localization of ChREBP—Subcellular localization of GFP-fused WT-ChREBP or its mutants was determined using a confocal laser scanning microscope (Bio Rad, Hercules, Calif.). In order to quantitate nuclear localization of ChREBP, for each condition, 100 transfected hepatocytes from 5 independent experiments were scored in a blinded fashion as to whether the GFP-fused ChREBP was predominantly nuclear or cytoplasmic. The identity of the nucleus was verified by comparative phase-contrast microscopy. B. Results
Rat primary cultured hepatocytes were transfected with a plasmid comprising a gene encoding the GFP-fused wild type-ChREBP or NLS domain deletion mutants. […] The values are expressed as mean±SE. *P<0.05 compared to that of wild type-ChREBP.

[3] = molecular target: T1, cytosolic Xu-5-P activated PPase (Rattus norvegicus, UniProt P63331); test: Protein phosphatase assay, cytosolic Xu-5-P activated PPase of liver; format: biochemical; conditions: for inhibition of cytosolic Xu-5-P activated PPase (in words): okadaic acid 10 nM (absence and presence of Xu-5-P), cantharidic acid 500 nM, deltamethrin 300 nM; for Cytosol. PPase activity, +Xu5P / Cytosol. PPase activity, None: Mono Q purified, phosphorylated peptide as substrate; for Cytosol. PPase activity, None: absence of Xu-5-P
T1 construct: from tissue; host or cells: rat liver cytosolic extract, DEAE-cellulose then Mono Q
T1 sequence (P63331 whole entry): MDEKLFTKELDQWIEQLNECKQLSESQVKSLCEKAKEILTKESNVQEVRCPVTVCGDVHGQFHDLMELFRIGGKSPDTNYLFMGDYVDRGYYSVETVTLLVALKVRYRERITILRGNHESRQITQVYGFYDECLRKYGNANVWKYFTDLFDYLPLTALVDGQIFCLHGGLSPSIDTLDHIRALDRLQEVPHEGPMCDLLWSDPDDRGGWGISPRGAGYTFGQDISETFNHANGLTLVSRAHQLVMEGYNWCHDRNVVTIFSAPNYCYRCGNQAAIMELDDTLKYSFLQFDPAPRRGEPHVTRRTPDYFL
T1 sequence (P56932 whole entry partner): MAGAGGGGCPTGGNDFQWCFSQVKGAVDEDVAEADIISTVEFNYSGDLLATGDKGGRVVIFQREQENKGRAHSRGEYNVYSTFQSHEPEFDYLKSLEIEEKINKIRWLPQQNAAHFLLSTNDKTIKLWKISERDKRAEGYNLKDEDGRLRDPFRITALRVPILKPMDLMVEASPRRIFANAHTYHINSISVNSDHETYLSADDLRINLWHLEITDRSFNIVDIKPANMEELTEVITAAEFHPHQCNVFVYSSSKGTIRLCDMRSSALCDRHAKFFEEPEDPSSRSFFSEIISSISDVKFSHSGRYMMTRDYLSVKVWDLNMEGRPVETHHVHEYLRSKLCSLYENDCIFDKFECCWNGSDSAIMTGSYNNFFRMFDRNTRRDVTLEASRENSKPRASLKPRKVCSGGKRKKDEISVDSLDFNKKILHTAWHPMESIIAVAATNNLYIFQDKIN
T1 sequence (Q5XI34 1-589 partner): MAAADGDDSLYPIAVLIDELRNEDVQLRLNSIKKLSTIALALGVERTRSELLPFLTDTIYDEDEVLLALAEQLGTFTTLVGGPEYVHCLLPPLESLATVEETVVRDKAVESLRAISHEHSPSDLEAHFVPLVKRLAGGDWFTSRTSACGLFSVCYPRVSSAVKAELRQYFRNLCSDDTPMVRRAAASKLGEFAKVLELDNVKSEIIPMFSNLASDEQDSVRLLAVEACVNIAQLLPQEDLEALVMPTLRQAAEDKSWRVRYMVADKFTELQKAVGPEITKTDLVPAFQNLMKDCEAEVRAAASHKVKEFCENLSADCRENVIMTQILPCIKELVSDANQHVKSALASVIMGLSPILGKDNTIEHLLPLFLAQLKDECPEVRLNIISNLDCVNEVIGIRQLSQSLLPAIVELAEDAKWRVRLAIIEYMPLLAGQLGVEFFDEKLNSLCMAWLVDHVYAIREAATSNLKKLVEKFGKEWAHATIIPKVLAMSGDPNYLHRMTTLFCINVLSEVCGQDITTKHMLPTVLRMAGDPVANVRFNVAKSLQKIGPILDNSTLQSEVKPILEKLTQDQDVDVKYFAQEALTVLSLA
Method: Liver was homogenized in a motor-driven Potter-Elvehjem homogenizer in 1 volume of extraction buffer containing 10 mM Hepes (pH 7.9), 10 mM KCl, 0.1 mM EDTA, 0.74 mM spermidine, 0.25 M sucrose, 50 mM imidazole, 1 mM dithiothreitol (DTT), 4 mM phenylmethanesulfonyl fluoride, and 1 mM benzamidine, and the extract was centrifuged at 10,000×g for 30 min.
(§1) Synthetic peptides corresponding to amino acids #187-201 ([…] “P1” peptide) (SEQ ID NO:64), #556-573 ([…], “P4” peptide) (SEQ ID NO:65), and #655-674 ([…]; “P3” peptide) (SEQ ID NO:66), of ChREBP were prepared by the Peptide Synthesis Service of University of Texas Southwestern Medical Center. These peptides were phosphorylated by 10 U of PKA for 6 h at 30° C. P4 peptide corresponding to 556-573 ([…]) (SEQ ID NO:65), was phosphorylated by 10 U of AMPK for 5 h at 30° C. The reaction mixtures were passed through on a Dowex AG1X8 column (0.5 cm×5 cm) which had been equilibrated with 30% acetic acid to remove residual [^32P]-ATP. The labeled peptides in the pass through fraction were lyophilized.
(§2) Protein phosphatase activity was determined by the method of Deana et al (Deana et al. (1990) Biochem, Biophys. Acta. 1051: 199-202). The reaction mixture contained in a final volume of 50 μ1,20 mM MOPS, pH 7.0, 1 mM DTT, 25 μg of BSA, and ^32P-labeled substrate for 15 min at 30° C. The reaction was terminated by the addition of 10% trichloroacetic acid. Phosphate released was converted to a phosphomolybdic complex followed by organic solvent (isobutyl alcohol:heptane, 1:1) extraction of the complex. The reaction mixture was mixed thoroughly and centrifuged. An aliquot of the top layer was then added to 5 ml scintillation fluid and counted. One unit of protein phosphatase is defined as that amount which catalyzes the release of 1.0 μmol of ^32P/min at 30° C.
(§3) These peptides were assayed with Mono Q purified cytosolic and nuclear PPases in the presence and absence of 50 μM Xu-5-P.

[4] = molecular target: T2, nuclear Xu-5-P activated PPase (Rattus norvegicus, UniProt P63331); test: Protein phosphatase assay, nuclear Xu-5-P activated PPase of liver; format: biochemical; conditions: for inhibition of nuclear PPase (in words): 500 nM cantharidic acid, 300 nM deltamethrin; for Nuclear PPase activity, +Xu5P / Nuclear PPase activity, None: Mono Q purified, phosphorylated peptide as substrate; for Nuclear PPase activity, None: absence of Xu-5-P
T2 construct: from tissue; host or cells: rat liver nuclear extract, DEAE-cellulose then Mono Q
T2 sequence (P63331 whole entry): as the sequence (P63331 whole entry) above
T2 sequence (P56932 whole entry partner): as the sequence (P56932 whole entry partner) above
T2 sequence (Q5XI34 1-589 partner): as the sequence (Q5XI34 1-589 partner) above
Method: Liver nuclear extracts were prepared as described in Example 1.
as §1, §2, §3

cultured hepatocytes = test: AMP, ADP, ATP assays in cultured hepatocytes; format: cell-based, rat; conditions: hepatocytes 12 h with 150 µM fatty acid, mean±S.E., n=4
Method: Hepatocytes were scraped and collected directly into 0.5 ml of ice-cold 6% (v/v) HClO4. The concentrations of ADP and ATP were determined enzymatically in the acid-extract with methods described (Kawaguchi, T., Veech, R. L., and Uyeda, K. (2001) J. Biol. Chem. 276, 28554-28561), and the cytosolic AMP was calculated by the method of Veech et al. (Veech, R. L., Lawson, J. W., Cornell, N. W., and Krebs, H. A. (1979) J. Biol. Chem. 254, 6538-6547).
Values are expressed as mean±S.E. (n=4).

[5] = molecular target: ChREBP (Carbohydrate Response Element Binding Protein) from rat liver (rat) (UniProt Q8VIP2); test: cell-based or functional assay
ChREBP (Carbohydrate Response Element Binding Protein) from rat liver (rat), sequence (Q8VIP2 whole entry): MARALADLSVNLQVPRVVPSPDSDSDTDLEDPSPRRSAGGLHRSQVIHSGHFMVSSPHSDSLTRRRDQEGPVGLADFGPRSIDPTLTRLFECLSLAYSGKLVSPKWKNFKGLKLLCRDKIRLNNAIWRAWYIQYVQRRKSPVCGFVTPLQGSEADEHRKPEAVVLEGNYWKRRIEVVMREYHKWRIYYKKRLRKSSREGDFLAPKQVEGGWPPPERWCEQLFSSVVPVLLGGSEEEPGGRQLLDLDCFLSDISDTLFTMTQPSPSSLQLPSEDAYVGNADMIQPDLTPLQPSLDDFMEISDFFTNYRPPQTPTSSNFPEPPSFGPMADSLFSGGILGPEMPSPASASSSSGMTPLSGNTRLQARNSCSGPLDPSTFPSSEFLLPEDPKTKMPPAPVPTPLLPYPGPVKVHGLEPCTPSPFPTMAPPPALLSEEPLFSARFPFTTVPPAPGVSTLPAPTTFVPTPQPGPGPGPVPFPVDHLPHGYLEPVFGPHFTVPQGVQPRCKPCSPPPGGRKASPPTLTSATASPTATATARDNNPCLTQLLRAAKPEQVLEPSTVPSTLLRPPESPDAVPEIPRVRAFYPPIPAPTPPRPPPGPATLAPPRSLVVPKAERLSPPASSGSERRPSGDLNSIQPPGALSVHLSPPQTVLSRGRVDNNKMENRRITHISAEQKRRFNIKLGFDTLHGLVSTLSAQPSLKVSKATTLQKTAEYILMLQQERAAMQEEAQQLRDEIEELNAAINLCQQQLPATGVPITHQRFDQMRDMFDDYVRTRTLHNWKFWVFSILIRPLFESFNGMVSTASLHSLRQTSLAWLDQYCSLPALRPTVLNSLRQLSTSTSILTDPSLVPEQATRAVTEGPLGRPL

[6] = system: T3, P1 peptide of ChREBP (amino acids #187-201), phosphorylated by PKA
T3 sequence: YYKKRLRKSSREGDF

[7] = system: T4, P3 peptide of ChREBP (amino acids #655-674), phosphorylated by PKA
T4 sequence: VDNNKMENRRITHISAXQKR

[8] = system: T5, P4 peptide of ChREBP (amino acids #556-573), phosphorylated by AMPK
T5 sequence: STVPSTLLRPPESPDAVP

[9] = Mono Q purified enzyme, 50 μM Xu-5-P

inhibition of glucose activation of L-PK gene transcription (L-PK gene [1]; AICAR 50 μM): approximately 80%
inhibition of glucose activation of L-PK gene transcription (L-PK gene [1]; AICAR 200 μM): over 90%
Compound: NC(=O)c1ncn([C@@H]2O[C@H](COP(=O)(O)O)[C@@H](O)[C@H]2O)c1N [AICAR, 5-amino-4-imidazolecarboxamide ribotide]

Compound: O=c1c(-c2ccc(O)cc2)coc2cc(O)cc(O)c12 [Genistein]
transcriptional activity of the L-PK gene in ChREBP-overexpressed hepatocytes (L-PK gene [2]): did not affect

Compound: O=S(=O)(NCCNC/C=C/c1ccc(Br)cc1)c1cccc2cnccc12 [H-89]
effect on endogenous ChREBP (L-PK transcriptional activity) (L-PK gene [2]; 10 μM H-89, hepatocytes without ChREBP overexpression): stimulated
transcriptional activity of the L-PK gene in ChREBP-overexpressed hepatocytes (L-PK gene [2]): increased
nuclear staining rate of GFP-fused ChREBP (GFP-fused ChREBP; 5.5 mM glucose, 10 μM H-89): increased

Compound: CN([C@@H](Cc1ccc(OS(=O)(=O)c2cccc3cnccc23)cc1)C(=O)N1CCN(c2ccccc2)CC1)S(=O)(=O)c1cccc2cnccc12 [KN-62]
transcriptional activity of the L-PK gene in ChREBP-overexpressed hepatocytes (L-PK gene [2]): did not affect

Compound: COc1cccc(-c2cc(=O)c3ccccc3o2)c1N [PD98059]
transcriptional activity of the L-PK gene in ChREBP-overexpressed hepatocytes (L-PK gene [2]): did not affect

extent of activation of cytosolic PPase by Xu-5-P [3, 9]: 1.8 fold
activation of P1 dephosphorylation by PPase of desalted cytosolic liver extract ([3]; only metabolite among glycolysis and pentose shunt intermediates examined): able to activate
extent of activation of nuclear PPase by Xu-5-P [4, 9]: 1.8 fold
activation of nuclear PPase, P3 peptide substrate ([4]; crude nuclear extract, added Xu-5-P): activated
activation of nuclear PPase, P4 peptide substrate ([4]; nuclear extract): activated
Compound: O=C(CO)[C@@H](O)[C@H](O)COP(=O)(O)O [Xu-5-P]

Compound: CC(=O)O [acetate]
AMP (cultured hepatocytes): 910 ± 87 nmol/g cells

Compound: CC1(C(=O)O)C2CCC(O2)C1(C)C(=O)O (centres unmarked) [cantharidic acid]
transcriptional activity of the L-PK gene in ChREBP-overexpressed hepatocytes (L-PK gene [2]): inhibited
nuclear staining rate of GFP-fused ChREBP (GFP-fused ChREBP; 500 nM cantharidic acid, 5.5 or 27.5 mM glucose): significantly decreased
inhibition of cytosolic Xu-5-P activated PPase (in words) [3]: completely
inhibition of nuclear PPase (in words) [4]: completely inhibited

Compound: CC1(C)[C@H](C(=O)O[C@H](C#N)c2cccc(Oc3ccccc3)c2)[C@@H]1C=C(Br)Br [deltamethrin]
inhibition of cytosolic Xu-5-P activated PPase (in words) [3]: did not affect
inhibition of nuclear PPase (in words) [4]: not affected

Cytosol. PPase activity, +Xu5P ([3]; 50 μM Xu-5-P): 11.2 units/mg
Cytosol. PPase activity, None [3]: 6.2 units/mg
Nuclear PPase activity, +Xu5P ([4]; 50 μM Xu-5-P): 0.93 units/mg
Nuclear PPase activity, None [4]: 0.55 units/mg
Compound: P1 peptide: synthetic peptide, amino acids #187-201 of ChREBP, YYKKRLRKSSREGDF, phosphorylated by PKA (also: phosphorylated by PKA, site not given here)

Cytosol. PPase activity, +Xu5P ([3]; 50 μM Xu-5-P): 11.0 units/mg
Cytosol. PPase activity, None [3]: 6.0 units/mg
Nuclear PPase activity, +Xu5P ([4]; 50 μM Xu-5-P): 0.94 units/mg
Nuclear PPase activity, None [4]: 0.52 units/mg
Compound: P3 peptide: synthetic peptide, amino acids #655-674 of ChREBP, VDNNKMENRRITHISAEQKR, phosphorylated by PKA (also: phosphorylated by PKA, site not given here)

reduction in DNA-binding activity of ChREBP after phosphorylation (gel shift) [5]: 90%
Compound: catalytic subunit of cAMP-dependent protein kinase (PKA) (enzyme)

Compound: cytosolic Xu-5-P activated PPase (Mono Q purified, rat liver)
PPase activity (units/mg), +Xu5P (50 µM) [6]: 11.2 units/mg
PPase activity (units/mg), no Xu-5-P [6]: 6.2 units/mg
PPase activity (units/mg), +Xu5P (50 µM) [7]: 11 units/mg
PPase activity (units/mg), no Xu-5-P [7]: 6 units/mg
PPase activity (units/mg), +Xu5P (50 µM) [8]: 8.8 units/mg
PPase activity (units/mg), no Xu-5-P [8]: 5.2 units/mg

Compound: nuclear Xu-5-P activated PPase (Mono Q purified, rat liver)
PPase activity (units/mg), +Xu5P (50 µM) [6]: 0.93 units/mg
PPase activity (units/mg), no Xu-5-P [6]: 0.55 units/mg
PPase activity (units/mg), +Xu5P (50 µM) [7]: 0.94 units/mg
PPase activity (units/mg), no Xu-5-P [7]: 0.52 units/mg
PPase activity (units/mg), +Xu5P (50 µM) [8]: 0.67 units/mg
PPase activity (units/mg), no Xu-5-P [8]: 0.39 units/mg
